In data set [1] the target is T1, CspA (Escherichia coli, UniProt P0A9X9 1-70). Nature of the data set: tryptophan fluorescence quenching; 20°C; Trp fluorescence: 1 uM CspA, Buffer H, 20°C; EMSA: Buffer O, 15 or 37°C, 10% native PAGE at 4°C; Fe-EDTA footprinting: Buffer N, 15°C; UV cross-linking at 15°C; buffer compositions not given in the material. Particulars: protein: recombinant; tags: His-tag (pETM11) removed with TEV; single strand.

In data set [2] the target is T1, CspA. Nature of the data set: tryptophan fluorescence quenching; 20°C; text calls the G6A variant oligo 6, table and Fig S10 oligo 5; Trp fluorescence: 1 uM CspA, Buffer H, 20°C; EMSA: Buffer O, 15 or 37°C, 10% native PAGE at 4°C; Fe-EDTA footprinting: Buffer N, 15°C; UV cross-linking at 15°C; buffer compositions not given in the material. Particulars: protein: recombinant; tags: His-tag (pETM11) removed with TEV; single strand.

Data set [3] has as its target Escherichia coli 30S ribosomal subunits (E. coli). Put plainly: ITC; control experiment: IF1 and 30S subunits, at low temperature, under comparable conditions; ITC buffer.

T1 sequence (P0A9X9 whole entry): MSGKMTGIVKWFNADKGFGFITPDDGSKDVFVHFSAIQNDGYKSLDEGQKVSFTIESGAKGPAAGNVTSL

Turning to AACAGGUA (ssRNA) [Oligo 3], in the data set with CspA [1], the Kd came out at 1240 ± 50 nM.
AACUAGUA (ssRNA) [Oligo 4]: in the data set with CspA [1], the Kd amounted to 1030 ± 60 nM.
Still for that read-out and setting: with AAAAAAAAA (ssRNA) [Oligo 7 (poly-A)] the figure was 5130 ± 1150 nM; with AACUGGAA (ssRNA) [Oligo 6], 2080 ± 140 nM; with AAAUGGUA (ssRNA) [Oligo 2], 2300 ± 130 nM.
For AACUGGUA (ssRNA) [Oligo 1], the Kd with CspA [1] was determined as 1240 ± 80 nM.
Consider AACUGAUA (ssRNA) [Oligo 5], for which the Kd with CspA [2] turned out to be 4860 ± 240 nM.

B1: initiation factor IF1 (natural protein)
chain: MAKEDNIEMQGTVLETLPNTMFRVELENGHVVTAHISGKMRKNYIRILTGDKVTVELTPYDLSKGRIVFRSR
For the molecule B1, the Kd in data set [3] amounted to 806 nM.

The values are drawn from paper PMC9947658, “Escherichia coli CspA stimulates translation in the cold of its own mRNA by promoting ribosome progression”.
